Where a chain is given by its changes, count along the chain named. Values belong to the binder of their own block, whether it stands above or below them.
Columns and labels:
[1] = biological target: T1, human CLDN18.2 (human, UniProt P56856-2 1-261); assay: flow cytometry, IgG1 (0-533 nM) on HEK293 cells expressing human CLDN18.2
T1 construct: whole, on cells; also called CLDN18.2 wild-type
T1 sequence (looked up): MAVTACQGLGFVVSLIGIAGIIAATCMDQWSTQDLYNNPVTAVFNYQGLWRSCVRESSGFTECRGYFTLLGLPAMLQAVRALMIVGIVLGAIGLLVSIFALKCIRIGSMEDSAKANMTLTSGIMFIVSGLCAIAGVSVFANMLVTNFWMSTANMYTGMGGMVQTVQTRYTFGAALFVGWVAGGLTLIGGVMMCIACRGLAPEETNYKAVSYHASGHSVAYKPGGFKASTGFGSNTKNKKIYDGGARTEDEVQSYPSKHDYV
Protocol: (§1) Purified CLDN18.2 antibodies were then characterized for affinity and cross-reactivity by flow cytometry. Briefly. HEK293 cells expressing human, cynomolgous monkey, rat or mouse CLDN18.2 were resuspended in FACS Buffer, stained with varying antibody concentrations (0-533 nM), washed with FACS Buffer, stained with Alexa Fluor® 647 AffiniPure F(ab′)₂ Fragment Goat Anti-Human IgG, washed with FACS buffer and stained with FACS buffer supplemented with DAPI. Antibody binding to cells was assessed on a FACSymphony (BD) with gates for live/dead cells. Histograms of median fluorescence intensity (MFI) were used to calculate the geometric mean for each antibody at a given concentration (FlowJo, LLC). Geometric means were plotted in Prism (GraphPad) and used to calculated binding EC₅₀. Representative results are shown for 5 antibodies (ZP1I16_D05 IgG1, 008LY1_D04 IgG1, 08LYG_D08 IgG1, 008M0G_G03 IgG1, ZP1I18_B08 IgG1) and 1 negative control antibody (R347 IgG1) although 31 other prospective antibodies were also characterized (Table 1).

[2] = biological target: T1, human CLDN18.2; assay: flow cytometry on HEK293 cells expressing human CLDN18.2 (FIG. 2A)
Text: FIGS. 2A-2D show CLDN18.2 binding affinity and species cross-reactivity of select leads as determined by flow cytometry measurement in HEK293 cells expressing human (FIG. 2A), cyno (FIG. 2B), rat (FIG. 2C) or mouse (FIG. 2D) CLDN18.2. All leads bind human and cyno CLDN18.2 (99% homology), most leads bind rat CLDN18.2 (90% homology) and only one internal lead binds murine CLDN18.2 (89% homology. R347 is used as a negative control.
as §1

[3] = biological target: T2, mouse CLDN18.2 (mouse, UniProt P56857-3 1-264); assay: flow cytometry, IgG1 (0-533 nM) on HEK293 cells expressing mouse CLDN18.2
T2 construct: whole, on cells; also called murine CLDN18.2; mCLDN18.2
T2 sequence (looked up): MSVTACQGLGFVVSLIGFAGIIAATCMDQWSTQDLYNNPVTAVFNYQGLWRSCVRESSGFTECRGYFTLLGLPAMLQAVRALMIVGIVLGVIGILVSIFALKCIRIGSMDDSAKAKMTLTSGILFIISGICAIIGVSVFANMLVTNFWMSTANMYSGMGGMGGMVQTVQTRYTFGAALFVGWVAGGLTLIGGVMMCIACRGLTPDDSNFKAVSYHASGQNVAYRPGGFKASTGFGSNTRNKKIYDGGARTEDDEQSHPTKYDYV
Protocol: as §1

binding result [2]: binds
B3: ZP1I18_B08 IgG1 (antibody, V domains shown)
VH: QVQLVQSGAEVKKPGSSVKVSCKASGGTFSSYAISWVRQAPGQGLEWMGGIIPIFGTANYAQKFQGRVTITADESTSTAYMELSSLRSEDTAVYYCARGFIRYGVFDYWGQGTLVTVSS
VL: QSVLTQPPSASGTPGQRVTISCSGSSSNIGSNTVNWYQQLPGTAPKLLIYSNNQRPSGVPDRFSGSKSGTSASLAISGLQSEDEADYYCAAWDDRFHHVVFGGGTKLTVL
notes: Tested as IgG1 with lambda light chain (pOE-IgG1 (λLC))

binding result [2]: binds
B4: 008M0G_G03 IgG1 (antibody, V domains shown)
VH: B3 VH with F100Y, I101P
VL: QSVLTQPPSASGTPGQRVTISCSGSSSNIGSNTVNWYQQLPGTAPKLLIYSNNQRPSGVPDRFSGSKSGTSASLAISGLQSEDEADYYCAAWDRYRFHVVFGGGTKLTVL
notes: as for B3

binding result [2]: binds
binding result [3]: binds
B5: 008LYG_D08 IgG1 (antibody, V domains shown)
VH: B3 VH with F100Y, I101Q, R102G, Y103M, Y108P
VL: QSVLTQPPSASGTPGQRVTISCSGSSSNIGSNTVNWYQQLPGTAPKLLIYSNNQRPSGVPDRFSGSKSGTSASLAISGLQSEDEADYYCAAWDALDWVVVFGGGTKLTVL
notes: as for B3

More lines, now with the values behind:

B1: ZP1I16_D05 IgG1 (antibody, V domains shown)
VH: B3 VH
VL: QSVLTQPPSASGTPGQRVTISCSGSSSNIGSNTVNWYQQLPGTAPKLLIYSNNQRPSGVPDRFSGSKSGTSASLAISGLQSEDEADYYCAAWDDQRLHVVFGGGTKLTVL
notes: as for B3
binding result [1]: binds

B2: 008LY1_D04 IgG1 (antibody, V domains shown)
VH: B3 VH with F100Y, I101V, R102Q, V105Y
VL: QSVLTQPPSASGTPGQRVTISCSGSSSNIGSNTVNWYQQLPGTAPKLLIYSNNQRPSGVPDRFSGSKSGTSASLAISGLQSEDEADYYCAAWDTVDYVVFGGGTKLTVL
notes: as for B3
binding result [2]: binds

Source: patent publication US20240132587A1 (AstraZeneca / MedImmune, published 2024)
